Laboratory results: paper PMC6910952 (Nature Communications, 2019)
Where a chain is given by its changes, count along the chain named. Where “and” joins values, the source holds several entries; their conditions need not be identical. Identical values can stand only once. Each block holds one binder with its values, some of them ahead of it.

Experiments:
Settings in all cases: both partners purified
[1] = target: T1, yNpl4^113–580 (E123A K124A E125A) (Saccharomyces cerevisiae, UniProt P33755 113-580, E123A | K124A | E125A); assay: crystal structure; yNpl4^113–580 (E123A K124A E125A)–yUfd1^288–305 complex; sitting drop, 20 °C, 90 mM Bis-Tris-HCl pH 7.5, 19% PEG3350, 10 mM ATP
T1 construct: not shown: GST, N-terminal, cleaved
T1 sequence (looked up): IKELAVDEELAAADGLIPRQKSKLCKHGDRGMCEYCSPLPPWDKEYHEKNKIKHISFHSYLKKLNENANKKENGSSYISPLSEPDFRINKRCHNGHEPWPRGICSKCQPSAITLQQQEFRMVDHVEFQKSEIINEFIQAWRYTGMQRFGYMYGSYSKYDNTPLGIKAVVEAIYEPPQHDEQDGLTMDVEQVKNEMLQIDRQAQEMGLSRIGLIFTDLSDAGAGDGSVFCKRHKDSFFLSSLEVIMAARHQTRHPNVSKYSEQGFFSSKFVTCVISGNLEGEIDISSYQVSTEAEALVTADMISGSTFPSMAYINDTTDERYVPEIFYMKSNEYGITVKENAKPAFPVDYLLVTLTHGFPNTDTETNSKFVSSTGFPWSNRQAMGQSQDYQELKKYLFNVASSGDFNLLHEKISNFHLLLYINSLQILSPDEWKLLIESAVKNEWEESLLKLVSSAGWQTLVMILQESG

M1-Ub4 = target: T2, M1-Ub4 (UniProt P0CG48 1-76; P0CG48 1-76; P0CG48 1-76; P0CG48 1-76); assay: SPR; Biacore T200, 25 °C; wild-type or mutant His6-yNpl4^113–580, yUfd1–His6-yNpl4^113–580 or His6-hNpl4 immobilized on a CM5 chip by amine coupling; Ub2 or Ub4 in two-fold dilution series injected 60 s at 10 μL per min in 10 mM HEPES-NaOH pH 7.5, 150 mM NaCl, 0.05% Tween-20, 0.5 g/L BSA; equilibrium Kd
T2 construct: ubiquitin (Ub), first unit; ubiquitin (Ub), second unit; ubiquitin (Ub), third unit; ubiquitin (Ub), fourth unit

M1-Ub2 = target: T3, M1-Ub2 (UniProt P0CG48 1-76; P0CG48 1-76); assay: as above
T3 construct: ubiquitin (Ub), first unit; ubiquitin (Ub), second unit

[2] = target: T4, Cdc48 (recombinant, hexameric) (Saccharomyces cerevisiae, UniProt P25694 1-835); assay: pull-down; GST-yUfd1 (0.5 μM) on Glutathione Sepharose 4B beads with His6-tagged Npl4 (wild type or mutant), Cdc48 and K48 chains; same binding buffer (Supplementary Fig. 3b)
T4 construct: Cdc48 AAA-family ATPase of Saccharomyces cerevisiae; source: E. coli Rosetta (DE3) (pET21a), purified (TALON resin, Superose 6)
T4 sequence (P25694 whole entry): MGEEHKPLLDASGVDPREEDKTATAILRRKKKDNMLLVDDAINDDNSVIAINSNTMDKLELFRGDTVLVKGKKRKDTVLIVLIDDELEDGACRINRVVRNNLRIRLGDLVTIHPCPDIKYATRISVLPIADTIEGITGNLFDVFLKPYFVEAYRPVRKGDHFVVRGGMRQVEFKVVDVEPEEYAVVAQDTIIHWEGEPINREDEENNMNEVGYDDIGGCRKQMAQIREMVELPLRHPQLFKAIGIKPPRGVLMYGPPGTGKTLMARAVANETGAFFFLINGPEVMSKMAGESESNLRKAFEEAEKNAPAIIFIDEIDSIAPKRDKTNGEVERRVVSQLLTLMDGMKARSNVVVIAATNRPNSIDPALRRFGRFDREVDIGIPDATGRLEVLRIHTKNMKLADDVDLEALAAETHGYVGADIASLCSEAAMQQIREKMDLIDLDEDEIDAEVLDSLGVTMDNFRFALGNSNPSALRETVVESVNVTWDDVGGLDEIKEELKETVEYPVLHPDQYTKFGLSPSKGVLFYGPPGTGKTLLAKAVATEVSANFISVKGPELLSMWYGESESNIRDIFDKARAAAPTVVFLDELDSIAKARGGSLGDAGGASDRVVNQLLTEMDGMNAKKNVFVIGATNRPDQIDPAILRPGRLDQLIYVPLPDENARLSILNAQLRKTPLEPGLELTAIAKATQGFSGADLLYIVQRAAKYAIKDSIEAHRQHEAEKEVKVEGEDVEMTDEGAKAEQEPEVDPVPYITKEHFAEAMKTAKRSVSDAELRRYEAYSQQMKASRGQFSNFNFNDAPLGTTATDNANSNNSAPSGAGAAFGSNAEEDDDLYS

- binding result [1]: binds
B1: yUfd1^288–305 (peptide, UniProt P53044 288-305, looked up)
chain: EPAKLDLPEGQLFFGFPM
notes: also called yUfd1 NBM; not shown: GST, N-terminal, cleaved

- Kd (M1-Ub4): 139 µM and 103 µM
- Kd (M1-Ub2): 333 µM and 420 µM
B2: His6-yNpl4^113–580 (domain or fragment, Saccharomyces cerevisiae, UniProt P33755 113-580, looked up)
chain: T1 sequence (looked up) with A11E, A12K, A13E
notes: codon-optimized synthetic cDNA; also called WT; WT #1; source: E. coli Rosetta (DE3), purified (Ni-NTA, Resource Q); also in lysate, mixed with cells expressing GST-yUfd1 for co-purification; not shown: His6, N-terminal, kept

- binding result [2]: binds
B3: GST-yUfd1 (full length) (natural protein, Saccharomyces cerevisiae, UniProt P53044 1-361, looked up)
chain: MFSGFSSFGGGNGFVNMPQTFEEFFRCYPIAMMNDRIRKDDANFGGKIFLPPSALSKLSMLNIRYPMLFKLTANETGRVTHGGVLEFIAEEGRVYLPQWMMETLGIQPGSLLQISSTDVPLGQFVKLEPQSVDFLDISDPKAVLENVLRNFSTLTVDDVIEISYNGKTFKIKILEVKPESSSKSICVIETDLVTDFAPPVGYVEPDYKALKAQQDKEKKNSFGKGQVLDPSVLGQGSMSTRIDYAGIANSSRNKLSKFVGQGQNISGKAPKAEPKQDIKDMKITFDGEPAKLDLPEGQLFFGFPMVLPKEDEESAAGSKSSEQNFQGQGISLRKSNKRKTKSDHDSSKSKAPKSPEVIEID
notes: Ufd1 of Saccharomyces cerevisiae (yUfd1), full length; also called GST-Ufd1; source: E. coli Rosetta (DE3) (pGEX-6P1), purified (Glutathione Sepharose FF, Resource Q); not shown: GST, N-terminal, kept
